Molecular target: T1, recombinant human MCAM/Fc chimera (Sino Biological 10115-H02H) (human, UniProt P43121 24-559)
T1 construct: melanoma cell adhesion molecule (MCAM), human, part fused to Fc; IgG1 Fc served as the control chimera; source: bought: Sino Biological Inc
T1 sequence (looked up): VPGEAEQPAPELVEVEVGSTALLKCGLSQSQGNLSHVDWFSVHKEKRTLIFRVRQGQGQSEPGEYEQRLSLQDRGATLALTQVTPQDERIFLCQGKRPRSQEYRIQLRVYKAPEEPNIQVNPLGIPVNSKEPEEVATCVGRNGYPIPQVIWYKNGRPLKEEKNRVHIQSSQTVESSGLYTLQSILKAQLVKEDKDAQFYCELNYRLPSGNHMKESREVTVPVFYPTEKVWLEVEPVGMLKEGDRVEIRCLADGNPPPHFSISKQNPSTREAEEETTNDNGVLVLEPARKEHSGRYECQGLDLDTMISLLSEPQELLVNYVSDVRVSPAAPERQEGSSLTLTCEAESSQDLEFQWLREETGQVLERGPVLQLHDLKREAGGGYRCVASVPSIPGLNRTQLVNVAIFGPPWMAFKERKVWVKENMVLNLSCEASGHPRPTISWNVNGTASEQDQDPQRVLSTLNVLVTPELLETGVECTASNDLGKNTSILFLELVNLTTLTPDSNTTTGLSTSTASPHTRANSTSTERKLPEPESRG
Assay: SPR; Biacore T100, CM5 chip, room temperature, 1x PBS with 0.05% Tween 20; MCAM/Fc, FGFR1/Fc, FGFR2/Fc or IgG1 Fc immobilised by amine coupling, soluble FGF2, FGF4 or FGF8 flowed over; 1:1 binding model
Settings: both partners purified

B1: recombinant FGF4 (Peprotech AF-100-31) (ligand, UniProt P08620 31-206, looked up)
chain: APTAPNGTLEAELERRWESLVALSLARLPVAAQPKEAAVQSGAGDYLLGIKRLRRLYCNVGIGFHLQALPDGRIGGAHADTRDSLLELSPVERGVVSIFGVASRFFVAMSSKGKLYGSPFFTDECTFKEILLPNNYNAYESYKYPGMFIALSKNGKTKKGNRVSPTMKVTHFLPRL
notes: fibroblast growth factor 4, recombinant, soluble; also called soluble FGF4; source: bought: Peprotech
Question: Which Kd does the source give for B1 here?
Answer: 0.97 nM

— article PMC5467231, “The signalling receptor MCAM coordinates apical-basal polarity and planar cell polarity during morphogenesis” (Nature Communications, 2017)
